From patent US12679878B2, “CRF2 receptor agonists and their use in therapy” (SANOFI, priority 2020, dated 2026)
Starred links: 1 amine or outer side, 2 acyl side, 3 side chain; linkers in the order of their positions; H or OH if unused. Non-standard residues stand in square brackets, D forms with d. Groups on a side chain read outwards from the residue. No end group written: not given here. *: point of attachment. C18 diacid = O=C(O)CCCCCCCCCCCCCCCCC(=O)*; γGlu = O=C(O)[C@H](CCC(=O)[*:2])N[*:1]; AEEA = NCCOCCOCC(=O)O; Aib = CC(C)(N)C(=O)O

B1: SEQ ID NO: 102 (peptide)
peptide: IVLSLD[dV]PIKLK([AEEA-AEEA-γGlu-C18 diacid])QILLKQERQKKQREQAETNKQILAQV-NH2
modifications: N-terminus assumed
SMILES: CC[C@H](C)[C@H](N)C(=O)N[C@H](C(=O)N[C@@H](CC(C)C)C(=O)N[C@@H](CO)C(=O)N[C@@H](CC(C)C)C(=O)N[C@@H](CC(=O)O)C(=O)N[C@@H](C(=O)N1CCC[C@H]1C(=O)N[C@H](C(=O)N[C@@H](CCCCN)C(=O)N[C@@H](CC(C)C)C(=O)N[C@@H](CCCCNC(=O)COCCOCCNC(=O)COCCOCCNC(=O)CC[C@H](NC(=O)CCCCCCCCCCCCCCCCC(=O)O)C(=O)O)C(=O)N[C@@H](CCC(N)=O)C(=O)N[C@H](C(=O)N[C@@H](CC(C)C)C(=O)N[C@@H](CC(C)C)C(=O)N[C@@H](CCCCN)C(=O)N[C@@H](CCC(N)=O)C(=O)N[C@@H](CCC(=O)O)C(=O)N[C@@H](CCCNC(=N)N)C(=O)N[C@@H](CCC(N)=O)C(=O)N[C@@H](CCCCN)C(=O)N[C@@H](CCCCN)C(=O)N[C@@H](CCC(N)=O)C(=O)N[C@@H](CCCNC(=N)N)C(=O)N[C@@H](CCC(=O)O)C(=O)N[C@@H](CCC(N)=O)C(=O)N[C@@H](C)C(=O)N[C@@H](CCC(=O)O)C(=O)N[C@H](C(=O)N[C@@H](CC(N)=O)C(=O)N[C@@H](CCCCN)C(=O)N[C@@H](CCC(N)=O)C(=O)N[C@H](C(=O)N[C@@H](CC(C)C)C(=O)N[C@@H](C)C(=O)N[C@@H](CCC(N)=O)C(=O)N[C@H](C(N)=O)C(C)C)[C@@H](C)CC)[C@@H](C)O)[C@@H](C)CC)[C@@H](C)CC)C(C)C)C(C)C
B2: SEQ ID NO: 103 (peptide)
peptide: IVLSLDVPIKLK([AEEA-AEEA-γGlu-C18 diacid])QILLEQERQK[Aib]QREQAETNKQILAQV-NH2
modifications: N-terminus assumed
SMILES: CC[C@H](C)[C@H](N)C(=O)N[C@H](C(=O)N[C@@H](CC(C)C)C(=O)N[C@@H](CO)C(=O)N[C@@H](CC(C)C)C(=O)N[C@@H](CC(=O)O)C(=O)N[C@H](C(=O)N1CCC[C@H]1C(=O)N[C@H](C(=O)N[C@@H](CCCCN)C(=O)N[C@@H](CC(C)C)C(=O)N[C@@H](CCCCNC(=O)COCCOCCNC(=O)COCCOCCNC(=O)CC[C@H](NC(=O)CCCCCCCCCCCCCCCCC(=O)O)C(=O)O)C(=O)N[C@@H](CCC(N)=O)C(=O)N[C@H](C(=O)N[C@@H](CC(C)C)C(=O)N[C@@H](CC(C)C)C(=O)N[C@@H](CCC(=O)O)C(=O)N[C@@H](CCC(N)=O)C(=O)N[C@@H](CCC(=O)O)C(=O)N[C@@H](CCCNC(=N)N)C(=O)N[C@@H](CCC(N)=O)C(=O)N[C@@H](CCCCN)C(=O)NC(C)(C)C(=O)N[C@@H](CCC(N)=O)C(=O)N[C@@H](CCCNC(=N)N)C(=O)N[C@@H](CCC(=O)O)C(=O)N[C@@H](CCC(N)=O)C(=O)N[C@@H](C)C(=O)N[C@@H](CCC(=O)O)C(=O)N[C@H](C(=O)N[C@@H](CC(N)=O)C(=O)N[C@@H](CCCCN)C(=O)N[C@@H](CCC(N)=O)C(=O)N[C@H](C(=O)N[C@@H](CC(C)C)C(=O)N[C@@H](C)C(=O)N[C@@H](CCC(N)=O)C(=O)N[C@H](C(N)=O)C(C)C)[C@@H](C)CC)[C@@H](C)O)[C@@H](C)CC)[C@@H](C)CC)C(C)C)C(C)C
B3: SEQ ID NO: 104 (peptide)
peptide: IVLSLDVPIKLK([AEEA-AEEA-γGlu-C18 diacid])QILLKQERQK[Aib]QREQAETNKQILAQV-NH2
modifications: N-terminus assumed
SMILES: CC[C@H](C)[C@H](N)C(=O)N[C@H](C(=O)N[C@@H](CC(C)C)C(=O)N[C@@H](CO)C(=O)N[C@@H](CC(C)C)C(=O)N[C@@H](CC(=O)O)C(=O)N[C@H](C(=O)N1CCC[C@H]1C(=O)N[C@H](C(=O)N[C@@H](CCCCN)C(=O)N[C@@H](CC(C)C)C(=O)N[C@@H](CCCCNC(=O)COCCOCCNC(=O)COCCOCCNC(=O)CC[C@H](NC(=O)CCCCCCCCCCCCCCCCC(=O)O)C(=O)O)C(=O)N[C@@H](CCC(N)=O)C(=O)N[C@H](C(=O)N[C@@H](CC(C)C)C(=O)N[C@@H](CC(C)C)C(=O)N[C@@H](CCCCN)C(=O)N[C@@H](CCC(N)=O)C(=O)N[C@@H](CCC(=O)O)C(=O)N[C@@H](CCCNC(=N)N)C(=O)N[C@@H](CCC(N)=O)C(=O)N[C@@H](CCCCN)C(=O)NC(C)(C)C(=O)N[C@@H](CCC(N)=O)C(=O)N[C@@H](CCCNC(=N)N)C(=O)N[C@@H](CCC(=O)O)C(=O)N[C@@H](CCC(N)=O)C(=O)N[C@@H](C)C(=O)N[C@@H](CCC(=O)O)C(=O)N[C@H](C(=O)N[C@@H](CC(N)=O)C(=O)N[C@@H](CCCCN)C(=O)N[C@@H](CCC(N)=O)C(=O)N[C@H](C(=O)N[C@@H](CC(C)C)C(=O)N[C@@H](C)C(=O)N[C@@H](CCC(N)=O)C(=O)N[C@H](C(N)=O)C(C)C)[C@@H](C)CC)[C@@H](C)O)[C@@H](C)CC)[C@@H](C)CC)C(C)C)C(C)C
B4: SEQ ID NO: 105 (peptide)
peptide: IVLSLDVPIKLK([AEEA-AEEA-γGlu-C18 diacid])QILLEQERQK[Aib]QRQQAETNKQILAQV-NH2
modifications: N-terminus assumed
SMILES: CC[C@H](C)[C@H](N)C(=O)N[C@H](C(=O)N[C@@H](CC(C)C)C(=O)N[C@@H](CO)C(=O)N[C@@H](CC(C)C)C(=O)N[C@@H](CC(=O)O)C(=O)N[C@H](C(=O)N1CCC[C@H]1C(=O)N[C@H](C(=O)N[C@@H](CCCCN)C(=O)N[C@@H](CC(C)C)C(=O)N[C@@H](CCCCNC(=O)COCCOCCNC(=O)COCCOCCNC(=O)CC[C@H](NC(=O)CCCCCCCCCCCCCCCCC(=O)O)C(=O)O)C(=O)N[C@@H](CCC(N)=O)C(=O)N[C@H](C(=O)N[C@@H](CC(C)C)C(=O)N[C@@H](CC(C)C)C(=O)N[C@@H](CCC(=O)O)C(=O)N[C@@H](CCC(N)=O)C(=O)N[C@@H](CCC(=O)O)C(=O)N[C@@H](CCCNC(=N)N)C(=O)N[C@@H](CCC(N)=O)C(=O)N[C@@H](CCCCN)C(=O)NC(C)(C)C(=O)N[C@@H](CCC(N)=O)C(=O)N[C@@H](CCCNC(=N)N)C(=O)N[C@@H](CCC(N)=O)C(=O)N[C@@H](CCC(N)=O)C(=O)N[C@@H](C)C(=O)N[C@@H](CCC(=O)O)C(=O)N[C@H](C(=O)N[C@@H](CC(N)=O)C(=O)N[C@@H](CCCCN)C(=O)N[C@@H](CCC(N)=O)C(=O)N[C@H](C(=O)N[C@@H](CC(C)C)C(=O)N[C@@H](C)C(=O)N[C@@H](CCC(N)=O)C(=O)N[C@H](C(N)=O)C(C)C)[C@@H](C)CC)[C@@H](C)O)[C@@H](C)CC)[C@@H](C)CC)C(C)C)C(C)C
B5: SEQ ID NO: 106 (peptide)
peptide: IVLSLDVPIKLK([AEEA-AEEA-γGlu-C18 diacid])QILLEQERQK[Aib]QREQAETNKQILERV-NH2
modifications: N-terminus assumed
SMILES: CC[C@H](C)[C@H](N)C(=O)N[C@H](C(=O)N[C@@H](CC(C)C)C(=O)N[C@@H](CO)C(=O)N[C@@H](CC(C)C)C(=O)N[C@@H](CC(=O)O)C(=O)N[C@H](C(=O)N1CCC[C@H]1C(=O)N[C@H](C(=O)N[C@@H](CCCCN)C(=O)N[C@@H](CC(C)C)C(=O)N[C@@H](CCCCNC(=O)COCCOCCNC(=O)COCCOCCNC(=O)CC[C@H](NC(=O)CCCCCCCCCCCCCCCCC(=O)O)C(=O)O)C(=O)N[C@@H](CCC(N)=O)C(=O)N[C@H](C(=O)N[C@@H](CC(C)C)C(=O)N[C@@H](CC(C)C)C(=O)N[C@@H](CCC(=O)O)C(=O)N[C@@H](CCC(N)=O)C(=O)N[C@@H](CCC(=O)O)C(=O)N[C@@H](CCCNC(=N)N)C(=O)N[C@@H](CCC(N)=O)C(=O)N[C@@H](CCCCN)C(=O)NC(C)(C)C(=O)N[C@@H](CCC(N)=O)C(=O)N[C@@H](CCCNC(=N)N)C(=O)N[C@@H](CCC(=O)O)C(=O)N[C@@H](CCC(N)=O)C(=O)N[C@@H](C)C(=O)N[C@@H](CCC(=O)O)C(=O)N[C@H](C(=O)N[C@@H](CC(N)=O)C(=O)N[C@@H](CCCCN)C(=O)N[C@@H](CCC(N)=O)C(=O)N[C@H](C(=O)N[C@@H](CC(C)C)C(=O)N[C@@H](CCC(=O)O)C(=O)N[C@@H](CCCNC(=N)N)C(=O)N[C@H](C(N)=O)C(C)C)[C@@H](C)CC)[C@@H](C)O)[C@@H](C)CC)[C@@H](C)CC)C(C)C)C(C)C
B6: SEQ ID NO: 107 (peptide)
peptide: IVLSLDVPIKLK([AEEA-AEEA-γGlu-C18 diacid])QILLKQERQK[Aib]QREQAETNKQILERV-NH2
modifications: N-terminus assumed
SMILES: CC[C@H](C)[C@H](N)C(=O)N[C@H](C(=O)N[C@@H](CC(C)C)C(=O)N[C@@H](CO)C(=O)N[C@@H](CC(C)C)C(=O)N[C@@H](CC(=O)O)C(=O)N[C@H](C(=O)N1CCC[C@H]1C(=O)N[C@H](C(=O)N[C@@H](CCCCN)C(=O)N[C@@H](CC(C)C)C(=O)N[C@@H](CCCCNC(=O)COCCOCCNC(=O)COCCOCCNC(=O)CC[C@H](NC(=O)CCCCCCCCCCCCCCCCC(=O)O)C(=O)O)C(=O)N[C@@H](CCC(N)=O)C(=O)N[C@H](C(=O)N[C@@H](CC(C)C)C(=O)N[C@@H](CC(C)C)C(=O)N[C@@H](CCCCN)C(=O)N[C@@H](CCC(N)=O)C(=O)N[C@@H](CCC(=O)O)C(=O)N[C@@H](CCCNC(=N)N)C(=O)N[C@@H](CCC(N)=O)C(=O)N[C@@H](CCCCN)C(=O)NC(C)(C)C(=O)N[C@@H](CCC(N)=O)C(=O)N[C@@H](CCCNC(=N)N)C(=O)N[C@@H](CCC(=O)O)C(=O)N[C@@H](CCC(N)=O)C(=O)N[C@@H](C)C(=O)N[C@@H](CCC(=O)O)C(=O)N[C@H](C(=O)N[C@@H](CC(N)=O)C(=O)N[C@@H](CCCCN)C(=O)N[C@@H](CCC(N)=O)C(=O)N[C@H](C(=O)N[C@@H](CC(C)C)C(=O)N[C@@H](CCC(=O)O)C(=O)N[C@@H](CCCNC(=N)N)C(=O)N[C@H](C(N)=O)C(C)C)[C@@H](C)CC)[C@@H](C)O)[C@@H](C)CC)[C@@H](C)CC)C(C)C)C(C)C

Biological target: human corticotropin-releasing factor 2α (CRF2 α receptor) (human), Q13324
Assay: cell-based or functional assay

human corticotropin-releasing factor 2α (CRF2 α receptor) (human), Q13324, sequence (Q13324 20-411): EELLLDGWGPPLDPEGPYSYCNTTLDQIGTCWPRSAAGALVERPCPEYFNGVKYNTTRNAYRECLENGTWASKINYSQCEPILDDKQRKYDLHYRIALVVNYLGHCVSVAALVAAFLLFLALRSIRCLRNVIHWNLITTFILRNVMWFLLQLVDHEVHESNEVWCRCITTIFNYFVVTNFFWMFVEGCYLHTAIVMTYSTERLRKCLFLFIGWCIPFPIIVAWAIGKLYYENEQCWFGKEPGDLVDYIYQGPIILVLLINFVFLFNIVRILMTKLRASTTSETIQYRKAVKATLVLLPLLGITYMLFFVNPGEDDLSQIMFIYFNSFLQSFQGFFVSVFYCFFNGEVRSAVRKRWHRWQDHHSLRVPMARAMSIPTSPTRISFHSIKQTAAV

Binder	EC50 [nM], 0% HSA	EC50 [nM], 0.1% HSA
B1	0.07 nM	–
B2	0.84 nM	–
B3	0.32 nM	–
B4	0.41 nM	15.3 nM
B5	0.53 nM	13.2 nM
B6	0.81 nM	16.1 nM
